Measurements published in patent US20260285984 (published 2026).

Biological target: PD-1 (human)
Assay: SPR (range 50-70 nM)

Chain of PD-1 (human) (chain, as listed by the source): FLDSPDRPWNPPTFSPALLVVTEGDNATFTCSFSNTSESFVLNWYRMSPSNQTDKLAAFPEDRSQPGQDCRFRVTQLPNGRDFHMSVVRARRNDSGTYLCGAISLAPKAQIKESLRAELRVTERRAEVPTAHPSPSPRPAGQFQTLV

Kd: ~60 nM
B1: PD-1 agonist VHH (antibody, V domains shown)
VH: EVQLVESGGALVQPGGSLRLSCAASGFTFSSYAMTWVRQAPGKGPEWVSAIASDGASTSYLDSVKGRFTVSRDNAKNTLYLQMNSLKPEDTAVYYCARGGYLTYDRYGQGTQVTVSS
